Reference: patent US20250290928A1, “METHOD, KIT AND DEVICE FOR DETECTING EXTRACELLULAR VESICLES” (priority 2022, published 2025)
No end group written: not given here. *: point of attachment. 5FAM = O=C1OC2(c3ccc(O)cc3Oc3cc(O)ccc32)c2ccc(C(=O)*)cc21; TQ2 = quencher; TQ3 = quencher

Target: T1, MMP14 in the MDA-MB-231-derived extracellular vesicles (Homo sapiens, UniProt P50281)
T1 construct: in terms of intact MMP14 with a molecular weight of 70 kDa
Test: Evaluation of MMP14 activity of MDA-MB-231-derived extracellular vesicles with 96-well plate
Format: biochemical
Conditions: for increase in fluorescence intensity (temporal change): Example 4, EV 5 μg/mL, Assay buffer (Component D); for reaction rate per 1 μg/mL of extracellular vesicles: within 1 hour; for Km / Vmax: Example 9, EV 4 μg/mL, buffer (3), Lineweaver-Burk plots
Protocol: A relative fluorescence unit difference ΔRFU was calculated by subtracting the measured value of the sample for BG measurement from the measured value of each of the samples.
The concentration of the solution is 41.7 μg/mL. The concentration of the solution was set to x1, and 2-fold serial dilution was performed to prepare standard samples with six concentrations.
50 μL of the MMP14 detection solution was added to 50 μL of each of the samples, a reaction was performed at 37° C., and MMP14 activity was evaluated.
The concentration of the solution is 10 μg/mL.
50 μL of each of the MMP14 detection solutions was added to 50 μL of each of the samples, a reaction was performed at 37° C., and MMP14 activity was evaluated. […]
The concentration of the solution is 20 μg/mL. The concentration of the solution was set to x1, and 3-fold serial dilution was performed to prepare standard samples with three concentrations.
The concentration of the solution is 8 μg/mL.
50 μL of each of the MMP14 detection solutions was added to 50 μL of the sample, a reaction was performed at 37° C., and MMP14 activity was evaluated. […]
50 μL of the MMP14 detection solution was added to 50 μL of each of the samples, a reaction was performed at 30° C., and MMP14 activity was evaluated.
The MMP14 activity of the extracellular vesicles was evaluated with a 96-well plate (137101). A fluorescence intensity was measured with a fluorescence plate reader (Synergy) at 30° C. every 5 minutes for 2 hours. For measurement wavelengths, an excitation wavelength of 545±20 nm and a fluorescence wavelength of 588±20 nm were used. A relative fluorescence unit difference (ΔRFU) was calculated by subtracting the measured value of the sample for BG measurement from the measured value of each of the samples.
50 μL of each of the MMP14 detection solutions was added to 50 μL of each of the samples, a reaction was performed at 30° C., and MMP14 activity was evaluated.

[1] = Example 5, Assay buffer (Component D) of SensoLyte 520 MMP-14 Assay Kit, reporter 5 μM, 37° C.
[2] = Example 8, buffer (2), reporter 5 μM, 37° C.
[3] = buffer (4), reporter 5 μM, 37° C.

Row | Substance | Fluorescence change after 2 hours of reaction at 30° C. (Example 41, EV 5 μg/mL, reporter 5 μM, buffer (4), excitation 545±20 nm, fluorescence 588±20 nm) | Fluorescence change after 2 hours of reaction at 30° C. (MP, 1.25 μM #2T with 1.25 μM #1, EV 3.3 μg/mL) | Fluorescence change after 2 hours of reaction at 30° C. (MP, 1.25 μM #2T with 1.25 μM #2, EV 3.3 μg/mL) | Fluorescence change after 2 hours of reaction at 30° C. (MP, 2.5 μM #2T with 2.5 μM #1, EV 3.3 μg/mL) | Fluorescence change after 2 hours of reaction at 30° C. (MP, 2.5 μM #2T with 2.5 μM #2, EV 3.3 μg/mL) | increase in fluorescence intensity (temporal change) (reporter 5 μM, 37° C.) | reaction rate per 1 μg/mL of extracellular vesicles [1] | reaction rate per 1 μg/mL of extracellular vesicles [2] | Km (37° C.) [µM] | Vmax (37° C.) | cleaved more easily than Custom #2 (Example 9 reaction conditions) | fluorescence intensity at the same extracellular vesicle concentration (Example 10, buffer (3), reporter 5 μM, 37° C.) | extracellular vesicle concentration at which MMP14 activity was able to be detected with a 96-well plate [3] [µg/mL]
1 | TAMRA-GGPLGLAGGK(TQ3) ({TAMRA}-GGPLGLAGGK(TQ3)) [Custom #2T] | 6,455 ΔRFU | 1,015 ΔRFU | 1,734 ΔRFU | 1,118 ΔRFU | 2,196 ΔRFU |  |  |  |  |  |  |  | 
2 | [5-FAM]GRIGFLRTAK(TQ2)[OH] (5FAM-GRIGFLRTAK(TQ2)-OH) [Custom #1] |  |  |  |  |  | more significant than that from SensoLyte 520 MMP-14 | 101.5 ΔRFU/min | 198 ΔRFU/min | 0.443 | 1,278.77 ΔRFU/min | about 2.5 times | higher than the fluorescence intensity from Custom #2 | ≥ 1
3 | [5-FAM]GGPLGLAGGK(TQ2)[OH] (5FAM-GGPLGLAGGK(TQ2)-OH) [Custom #2] |  |  |  |  |  | more significant than that from SensoLyte 520 MMP-14 | 83.3 ΔRFU/min | 99.0 ΔRFU/min | 0.511 | 582.411 ΔRFU/min |  |  | ≥ 1
